Results as given in patent US20260116963A1 (GENERATE BIOMEDICINES, published 2026).
Substitutions are numbered along the chain they refer to.

B1: AbE (antibody, human IgG1, kappa, V domains shown)
VH: QVTLRESGPALVKPTQTLTLTCTVSGASLSAYSVNWIRQPPGKALEWLAMIWGDGKIVYNSALKSRLTISKDTSKNQVVLTMTNMDPVDTATYYCAGDGYFPYAMDNWGQGSLVTVSS
VL: DIVMTQSPDSLSVSLGERATINCRASKSVDSYGHSYMHWYQQKPGQPPKLLIYWASNLESGVPDRFSGSGSGTDFTLTISSLQAEDVAVYYCQQNNEDPRTFGGGTKVEIKR
B2: AbK (antibody, human IgG1, kappa, V domains shown)
VH: B1 VH with A27S, A31R, F101Y
VL: B1 VL with K27Q, H34N, W54L
B3: AbH (antibody, human IgG1, kappa, V domains shown)
VH: B1 VH with A31R, F101Y
VL: B1 VL with H34N, W54R
B4: AbN (antibody, human IgG1, kappa, V domains shown)
VH: B1 VH with F101Y
VL: B1 VL with K27E, S31Y, W54L
B5: AbL (antibody, human IgG1, kappa, V domains shown)
VH: B1 VH with A27F, A31R, F101Y
VL: B1 VL with H34R, W54L
B6: AbJ (antibody, human IgG1, kappa, V domains shown)
VH: B1 VH with G55R, I57K, N107L
VL: B1 VL
B7: AbI (antibody, human IgG1, kappa, V domains shown)
VH: B1 VH with A31R, Y100F, F101Y
VL: B1 VL with H34N, W54L
B8: AbF (antibody, human IgG1, kappa, V domains shown)
VH: B1 VH with A31R, G55A
VL: B1 VL with K27E, H34N, W54L
B9: AbO (antibody, human IgG1, kappa, V domains shown)
VH: B1 VH with A27Y, N107V
VL: B1 VL with S31Y, W54L
B10: AbM (antibody, human IgG1, kappa, V domains shown)
VH: B1 VH
VL: B1 VL with S31Y, H34R, W54L
B11: AbP (antibody, human IgG1, kappa, V domains shown)
VH: B1 VH with I57V, N107H
VL: B1 VL with H34N

Biological target: T1, human IL-13 (human, UniProt P35225 25-146, limits assumed)
T1 sequence (P35225 other isoform, or with tags, fused parts or gaps limits assumed): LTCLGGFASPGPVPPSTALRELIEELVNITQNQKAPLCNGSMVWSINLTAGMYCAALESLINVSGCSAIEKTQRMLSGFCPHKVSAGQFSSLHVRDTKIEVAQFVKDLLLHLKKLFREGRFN
Experiment: cell-based or functional assay

**Q.** B1 was tested. Which “IC50, HEK-Blue IL-13Ra1/IL-4Ra STAT6-SEAP reporter assay” value did it give?
**A.** 0.118 µg/mL

**Q.** B2 was tested. Which “IC50, HEK-Blue IL-13Ra1/IL-4Ra STAT6-SEAP reporter assay” value did it give?
**A.** 0.172 µg/mL

**Q.** Which “IC50, HEK-Blue IL-13Ra1/IL-4Ra STAT6-SEAP reporter assay” value does the source give for B3 here?
**A.** 0.107 µg/mL

**Q.** Which “IC50, HEK-Blue IL-13Ra1/IL-4Ra STAT6-SEAP reporter assay” value does the source give for B4 here?
**A.** 0.14 µg/mL

**Q.** Which “IC50, HEK-Blue IL-13Ra1/IL-4Ra STAT6-SEAP reporter assay” value does the source give for B5 here?
**A.** 0.32 µg/mL

**Q.** Which “IC50, HEK-Blue IL-13Ra1/IL-4Ra STAT6-SEAP reporter assay” value does the source give for B6 here?
**A.** 0.167 µg/mL

**Q.** For B7, which “IC50, HEK-Blue IL-13Ra1/IL-4Ra STAT6-SEAP reporter assay” value is on record?
**A.** 0.223 µg/mL

**Q.** How did the “IC50, HEK-Blue IL-13Ra1/IL-4Ra STAT6-SEAP reporter assay” value turn out when B8 was run?
**A.** 0.126 µg/mL

**Q.** B9 was tested. Which “IC50, HEK-Blue IL-13Ra1/IL-4Ra STAT6-SEAP reporter assay” value did it give?
**A.** 0.165 µg/mL

**Q.** B10 was tested. Which “IC50, HEK-Blue IL-13Ra1/IL-4Ra STAT6-SEAP reporter assay” value did it give?
**A.** 0.136 µg/mL

**Q.** Which “IC50, HEK-Blue IL-13Ra1/IL-4Ra STAT6-SEAP reporter assay” value does the source give for B11 here?
**A.** 0.152 µg/mL

Biological target: T1, human IL-13
Experiment: SPR (Biacore 8K+), antibody captured, human IL-13 as analyte, 37 C; less than 5% decay in 5,400 s, KD estimated

**Q.** For B1, which Kd is on record?
**A.** < 0.015 nM

**Q.** For B2, which Kd is on record?
**A.** < 0.015 nM

**Q.** How did the Kd turn out when B3 was run?
**A.** < 0.015 nM

**Q.** For B4, which Kd is on record?
**A.** < 0.015 nM

**Q.** B5 was tested. Which Kd did it give?
**A.** < 0.015 nM

**Q.** For B6, which Kd is on record?
**A.** < 0.015 nM

**Q.** How did the Kd turn out when B7 was run?
**A.** < 0.015 nM

**Q.** B8 was tested. Which Kd did it give?
**A.** < 0.015 nM

**Q.** How did the Kd turn out when B9 was run?
**A.** < 0.015 nM

**Q.** With B10 as the binder, how does the Kd read?
**A.** < 0.015 nM

**Q.** How did the Kd turn out when B11 was run?
**A.** < 0.015 nM
